Experimental data: paper PMC5042879 (The Biochemical journal, 2016)

T1: (His)6-tagged erythrocyte cytoplasmic domain of band 3 (cdb3), wild type (UniProt P02730 1-403)
T1 sequence (looked up): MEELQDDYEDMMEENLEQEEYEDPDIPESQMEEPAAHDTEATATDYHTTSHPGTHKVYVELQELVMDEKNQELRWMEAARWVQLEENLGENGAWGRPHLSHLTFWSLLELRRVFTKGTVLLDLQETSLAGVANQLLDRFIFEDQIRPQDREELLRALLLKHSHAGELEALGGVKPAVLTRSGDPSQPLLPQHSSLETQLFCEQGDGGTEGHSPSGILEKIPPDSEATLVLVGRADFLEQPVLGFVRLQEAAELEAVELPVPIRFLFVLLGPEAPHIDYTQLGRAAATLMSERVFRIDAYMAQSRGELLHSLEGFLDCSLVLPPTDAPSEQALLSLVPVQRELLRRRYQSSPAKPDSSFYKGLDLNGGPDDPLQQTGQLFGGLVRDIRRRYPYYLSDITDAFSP

B1: GST-β-adducin tail (amino acids 335–726) (domain or fragment, UniProt P35612 335-726, looked up)
chain: EKHRPHEVGSVQWAGSTFGPMQKSRLGEHEFEALMRMLDNLGYRTGYTYRHPFVQEKTKHKSEVEIPATVTAFVFEEDGAPVPALRQHAQKQQKEKTRWLNTPNTYLRVNVADEVQRSMGSPRPKTTWMKADEVEKSSSGMPIRIENPNQFVPLYTDPQEVLEMRNKIREQNRQDVKSAGPQSQLLASVIAEKSRSPSTESQLMSKGDEDTKDDSEETVPNPFSQLTDQELEEYKKEVERKKLELDGEKETAPEEPGSPAKSAPASPVQSPAKEAETKSPLVSPSKSLEEGTKKTETSKAATTEPETTQPEGVVVNGREEEQTAEEILSKGLSQMTTSADTDVDTSKDKTESVTSGPMSPEGSPSKSPSKKKKKFRTPSFLKKSKKKEKVES
B2: (His)6-tagged kidney cytoplasmic domain of band 3 (kidney cdb3) (domain or fragment, UniProt P02730-2 1-338, looked up)
chain: MDEKNQELRWMEAARWVQLEENLGENGAWGRPHLSHLTFWSLLELRRVFTKGTVLLDLQETSLAGVANQLLDRFIFEDQIRPQDREELLRALLLKHSHAGELEALGGVKPAVLTRSGDPSQPLLPQHSSLETQLFCEQGDGGTEGHSPSGILEKIPPDSEATLVLVGRADFLEQPVLGFVRLQEAAELEAVELPVPIRFLFVLLGPEAPHIDYTQLGRAAATLMSERVFRIDAYMAQSRGELLHSLEGFLDCSLVLPPTDAPSEQALLSLVPVQRELLRRRYQSSPAKPDSSFYKGLDLNGGPDDPLQQTGQLFGGLVRDIRRRYPYYLSDITDAFSP

Key:
[1] = molecular target: T1, (His)6-tagged erythrocyte cytoplasmic …; test: pull-down
[2] = molecular target: B1; test: pull-down

| Kd [1] | Kd [2] | Binder |
| --- | --- | --- |
| 260 nM | – | B1 |
| – | 280 nM | B2 |
